From US20080305041A1, “Pf4 Pharmacophores and Their Uses” (BIOQUANTA CORP., priority 2004, published 2008)

Legend:
PF4 receptor [1] = assay: PF4 receptor binding / competition of PF4-derived peptides
PF4 receptor [2] = assay: PF4 receptor activation by PF4-derived peptides
HUVEC [3] = assay: Angiogenic activity of mutant PF4 polypeptides in HUVEC cells; type: cell-based, Human; conditions: for antiangiogenic properties/activity of PF4 (effect of the mutation): Table 4 column Function
Experimental: (§1) Inhibition of DNA synthesis was measured by [^3H]-thymidine incorporation assay. Cells were plated at 15,000 cells per well in a 24 well-plate in 0.5 ml medium containing 2.5% FCS and allowed to attach for 4 hours at 37° C. Proliferation was then induced by addition of 10 ng/ml of FGF-2, VEGF165 or VEGF121. Increasing concentrations of purified recombinant PF4 proteins were added to some wells and HUVEC were further incubated for 48 hours. [^3H]-thymidine (1 μCi/well) was added during the last 20 hours of incubation. Cells were washed twice with PBS and treated with ice-cold 10% (w/v) trichloroacetic acid for 30 minutes. The resulting precipitates were solubilized with 1 M NaOH and incorporated radioactivity was measured in a Beckman LS-6500 multi-purpose scintillation counter.
HUVEC migration was evaluated in a modified Boyden chamber assay. Transwell cell culture chamber inserts with porous polycarbonate filters ([…]) were coated with 0.2% gelatin. HUVEC suspended in medium supplemented with 2.5% FCS were added to the inserts at 4×10^4 cells per well. The inserts were placed over chambers containing a chemotactic stimulus (10 ng/ml VEGF165), and cells were allowed to migrate for 4 hours at 37° C. in a CO2 incubator. For inhibition experiments, recombinant PF4 proteins were added to both the lower and upper chambers. After incubation, filters were rinsed with PBS, fixed with 1% paraformaldehyde and stained with hematoxyline of Harris (EMD Chemicals Inc. Gibbstown, N.J.).
(§2) The upper surfaces of the filters was scraped with a cotton swab to remove the nonmigrant cells. The […] in a optical microscope at high powered (×200) magnification, and the number of cells within the microscope visualization field was recorded. Each experimental point was performed in triplicate, and 20 visual fields were analyzed per filter.
Next, the PF4 surface was mapped using site-directed mutagenesis. In particular, a series of mutant PF4 polypeptides was generated, and their angiogenic activity in HUVEC cells was investigated using assays such as those described in Section 6.1, above. Table 3 below lists amino acid sequences of the PF4 polypeptides generated, along with each polypeptide designation and sequence identification number (SEQ ID NO.). The first sequence, which is designated WTPF4, corresponds to the wild-type, mature PF4 amino acid sequence that is also depicted in FIG. 1C (SEQ ID NO:1). The other sequences depicted in Table 3 comprise one or more amino acid substitutions, indicated by bold-faced, underlined type in the amino acid sequence.

HUVEC [4] = assay: HUVEC migration assay (modified Boyden chamber); type: cell-based, Human
Experimental: (§3) Human umbilical vein endothelial cells (HUVEC) were isolated by collagenase (Roche Diagnostics) digestion as described previously (Jaffe et al., J Clin Invest. 1973; 85(11):2745-56).
(§4) Cells were grown in M199 medium containing 15% fetal calf serum (FCS), 5% human serum, 2 mM glutamine, 50 U/ml penicillin, 50 μg/ml streptomycin, 2.5 μg/ml amphotericin B, and 15 mM HEPES. Cultures were maintained at 37° C. amd 5% CO2 in humidified atmosphere. Every 3-4 days, the cultures were harvested by trypsin treatment, diluted, replated and grown to confluence. HUVEC grown until confluence from the second or third passage are preferably used for experiments described here.
HUVEC migration was evaluated in a modified Boyden chamber assay. Transwell cell culture chamber inserts with porous polycarbonate filters ([…]) were coated with 0.2% gelatin. HUVEC suspended in medium supplemented with 2.5% FCS were added to the inserts at 4×10^4 cells per well. […]
as §2

HUVEC [5] = assay: Endothelial cell proliferation assay ([3H]-thymidine incorporation); type: cell-based, Human; conditions: stimulus not given
Experimental: as §3, §4
as §1, with “Cells were washed twice with PBS and treated with ice-cold 10% (w/v) trichloroacetic acid for 30 minutes.” left out

Molecule: P34-53: peptide PHSPTAQLIATLKNGRKISL (SEQ ID NO:159), derived from residues 34-53 of mature PF4 [Mutant P34-53]
- competition against P34-56 for target binding (PF4 receptor [1]; competitor P34-56): effectively competes
- competition with PF4 for binding to the PF4 receptor (PF4 receptor [1]; competitor PF4): effectively competes
- activation of PF4 receptor (PF4 receptor [2]): does not activate

Molecule: P34-56: peptide PHSPTAQLIATLKNGRKISLDLQ (SEQ ID NO:157), derived from residues 34-56 of mature PF4 [Mutant P34-56]
- binding to PF4 receptor (PF4 receptor [1]): bind to
- activation of PF4 receptor (PF4 receptor [2]): activate

Molecule: P35-53: peptide PSPTAQLIATLKNGRKISL (SEQ ID NO:160), P34-53 with His2 removed [Mutant P35-53]
- binding to PF4 receptor (PF4 receptor [1]): does not bind to
- activation of PF4 receptor (PF4 receptor [2]): does not bind to or activate

Molecule: P37-56: peptide PTAQLIATLKNGRKISLDLQ (SEQ ID NO:158), P34-56 without capping box [Mutant P37-56]
- activation of PF4 receptor (PF4 receptor [2]): does not activate

B1: PF4-M10H: mutant PF4 polypeptide SEQ ID NO:19; single mutant T47A, without HBD (protein, listed as Homo sapiens)
chain: EAEEDGDLQCLCVKTASQVRPRHITSLEVIKAGPHCPTAQLIATLKNGRKICLDLQAPLYQEIIQELLES
- antiangiogenic properties/activity of PF4 (effect of the mutation) (HUVEC [3]): Mutation does not suppress

B2: PF4-M2: mutant PF4 polypeptide SEQ ID NO:3; tests importance of Cys residues (protein, listed as Homo sapiens)
chain: EAEEDGDLQSLCVKTTSQVRPRHITSLEVIKAGPHSPTAQLIATLKNGRKICLDLQAPLYKKIIKKLLES
- antiangiogenic properties/activity of PF4 (effect of the mutation) (HUVEC [3]): Complete loss of activity due

B3: PF4-M5: mutant PF4 polypeptide SEQ ID NO:9; triple mutant L42S, V44Q, T47A carrying HBD (protein, listed as Homo sapiens)
chain: EAEEDGDLQCSCQKTASQVRPRHITSLEVIKAGPHCPTAQLIATLKNGRKICLDLQAPLYKKIIKKLLES
- antiangiogenic properties/activity of PF4 (effect of the mutation) (HUVEC [3]): Mutation decreases the

B4: PF4-M13H: mutant PF4 polypeptide SEQ ID NO:25; single mutant V50S, without HBD (protein, listed as Homo sapiens)
chain: EAEEDGDLQCLCVKTTSQSRPRHITSLEVIKAGPHCPTAQLIATLKNGRKICLDLQAPLYQEIIQELLES
- antiangiogenic properties/activity of PF4 (effect of the mutation) (HUVEC [3]): Mutation does not suppress

B5: PF4-M3: mutant PF4 polypeptide SEQ ID NO:5; DLQ motif replaced by IL8-like motif, carrying HBD (protein, listed as Homo sapiens)
chain: EAEEDGDLRCLCVKTTSQVRPRHITSLEVIKAGPHCPTAQLIATLKNGRKICLDLQAPLYKKIIKKLLES
- effect on HUVEC compared with WTPF4 (HUVEC [3]): sulfate. It has the same effect

B6: PF4-M2H: mutant PF4 polypeptide SEQ ID NO:4; tests importance of Cys residues (protein, listed as Homo sapiens)
chain: EAEEDGDLQSLCVKTTSQVRPRHITSLEVIKAGPHSPTAQLIATLKNGRKICLDLQAPLYQEIIQELLES
- antiangiogenic properties/activity of PF4 (effect of the mutation) (HUVEC [3]): Complete loss of activity due

B7: PF4-M5H: mutant PF4 polypeptide SEQ ID NO:10; triple mutant L42S, V44Q, T47A, without HBD (protein, listed as Homo sapiens)
chain: EAEEDGDLQCSCQKTASQVRPRHITSLEVIKAGPHCPTAQLIATLKNGRKICLDLQAPLYQEIIQELLES
- antiangiogenic properties/activity of PF4 (effect of the mutation) (HUVEC [3]): Decreases the antiangiogenic

B8: PF4-M6: mutant PF4 polypeptide SEQ ID NO:11; triple mutant Q49A, V50S, H54A carrying HBD (protein, listed as Homo sapiens)
chain: EAEEDGDLQCLCVKTTSASRPRAITSLEVIKAGPHCPTAQLIATLKNGRKICLDLQAPLYKKIIKKLLES
- antiangiogenic properties/activity of PF4 (effect of the mutation) (HUVEC [3]): Mutation decreases the

B9: PF4-M1: mutant PF4 polypeptide SEQ ID NO:2; heparan sulfate binding domain (HBD) absent (protein, listed as Homo sapiens)
chain: EAEEDGDLQCLCVKTTSQVRPRHITSLEVIKAGPHCPTAQLIATLKNGRKICLDLQAPLYQEIIQELLES
- inhibition of cell migration (HUVEC) (HUVEC [4]): PF4-M1 also inhibits cell
- antiangiogenic properties/activity of PF4 (effect of the mutation) (HUVEC [3]): PF4-M1 is antiangiogenic

B10: PF4-M3H: mutant PF4 polypeptide SEQ ID NO:6; PF4-M3 mutant without HBD (protein, listed as Homo sapiens)
chain: EAEEDGDLRCLCVKTTSQVRPRHITSLEVIKAGPHCPTAQLIATLKNGRKICLDLQAPLYQEIIQELLES
- inhibition of the proliferation of HUVEC cells (HUVEC [5]): This mutant cannot inhibit
- inhibition of cell migration (HUVEC) (HUVEC [4]): This mutant cannot inhibit
- antiangiogenic properties/activity of PF4 (effect of the mutation) (HUVEC [3]): cancels the antiangiogenic
